Assay [1] deals with T1, BR3 expressed on cells (human, UniProt Q96RJ3 1-184).
T1 construct: Clone of the Origene human cDNA library
T1 sequence: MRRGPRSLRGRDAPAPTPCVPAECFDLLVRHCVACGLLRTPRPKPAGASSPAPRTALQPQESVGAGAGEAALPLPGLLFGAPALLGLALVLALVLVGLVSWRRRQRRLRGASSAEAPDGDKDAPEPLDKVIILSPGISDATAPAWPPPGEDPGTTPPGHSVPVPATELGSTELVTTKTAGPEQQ
The assay can be described thus: flow cytometry, transfected 293T cells, 50 µg/ml. (In general: In flow cytometry, cells or beads pass a laser one at a time.)

The target of assay [2] is T2, PSS8 expressed on cells (human, UniProt Q16651 30-343).
T2 construct: Clone of the Origene human cDNA library; also called Protease serine 8; prostasin
The assay can be described thus: flow cytometry, transfected 293T cells.

The target of assay [3] is T3, IL-2Ra expressed on cells (human, UniProt P01589 22-272).
T3 construct: Clone of the Origene human cDNA library; also called Interleukin 2 receptor alpha
T3 sequence: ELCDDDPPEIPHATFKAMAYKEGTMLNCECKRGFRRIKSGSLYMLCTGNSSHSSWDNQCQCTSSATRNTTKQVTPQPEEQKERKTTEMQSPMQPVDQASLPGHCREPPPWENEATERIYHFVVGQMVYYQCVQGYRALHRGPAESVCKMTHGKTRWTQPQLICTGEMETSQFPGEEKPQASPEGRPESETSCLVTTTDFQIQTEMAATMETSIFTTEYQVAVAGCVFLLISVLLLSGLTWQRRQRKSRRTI
In words: flow cytometry, transfected 293T cells.

Assay [4] has as its target T4, CLEC4G expressed on cells (human, UniProt Q6UXB4 1-293).
T4 construct: Clone of the Origene human cDNA library; also called C type lectin superfamily 4 member G
T4 sequence: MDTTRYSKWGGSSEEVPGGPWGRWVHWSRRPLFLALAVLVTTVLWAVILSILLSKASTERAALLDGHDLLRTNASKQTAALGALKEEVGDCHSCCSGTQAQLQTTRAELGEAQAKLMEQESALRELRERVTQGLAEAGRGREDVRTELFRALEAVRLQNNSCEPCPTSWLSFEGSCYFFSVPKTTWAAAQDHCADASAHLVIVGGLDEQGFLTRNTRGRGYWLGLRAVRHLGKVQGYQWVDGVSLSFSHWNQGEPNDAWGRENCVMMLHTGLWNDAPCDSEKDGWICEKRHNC
In words: flow cytometry, transfected 293T cells, 50 µg/ml.

For assay [5], the target named is T5, FceRII expressed on cells (human, UniProt P06734 1-321).
T5 construct: Clone of the Origene human cDNA library; also called FcRII
T5 sequence: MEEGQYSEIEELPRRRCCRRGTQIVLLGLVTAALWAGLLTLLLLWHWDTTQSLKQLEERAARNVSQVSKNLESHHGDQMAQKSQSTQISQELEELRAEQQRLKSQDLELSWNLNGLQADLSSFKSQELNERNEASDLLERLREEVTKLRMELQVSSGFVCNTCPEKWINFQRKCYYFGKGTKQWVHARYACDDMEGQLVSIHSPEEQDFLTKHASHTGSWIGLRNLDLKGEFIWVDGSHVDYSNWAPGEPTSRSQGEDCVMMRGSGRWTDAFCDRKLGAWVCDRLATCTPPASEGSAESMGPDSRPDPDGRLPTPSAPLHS
The assay can be described thus: flow cytometry, transfected 293T cells, 50 µg/ml.

Assay [6] has as its target T6, LRRTM4 expressed on cells (human, UniProt Q86VH4 31-590).
T6 construct: Clone of the Origene human cDNA library; also called Leucine rich repeat transmembrane neuronal 4
In words: flow cytometry, transfected 293T cells.

Assay [7] concerns the target T7, MAG expressed on cells (human, UniProt P20916 20-626).
T7 construct: Clone of the Origene human cDNA library; also called Myelin associated glycoprotein; SIGLEC4A
T7 sequence: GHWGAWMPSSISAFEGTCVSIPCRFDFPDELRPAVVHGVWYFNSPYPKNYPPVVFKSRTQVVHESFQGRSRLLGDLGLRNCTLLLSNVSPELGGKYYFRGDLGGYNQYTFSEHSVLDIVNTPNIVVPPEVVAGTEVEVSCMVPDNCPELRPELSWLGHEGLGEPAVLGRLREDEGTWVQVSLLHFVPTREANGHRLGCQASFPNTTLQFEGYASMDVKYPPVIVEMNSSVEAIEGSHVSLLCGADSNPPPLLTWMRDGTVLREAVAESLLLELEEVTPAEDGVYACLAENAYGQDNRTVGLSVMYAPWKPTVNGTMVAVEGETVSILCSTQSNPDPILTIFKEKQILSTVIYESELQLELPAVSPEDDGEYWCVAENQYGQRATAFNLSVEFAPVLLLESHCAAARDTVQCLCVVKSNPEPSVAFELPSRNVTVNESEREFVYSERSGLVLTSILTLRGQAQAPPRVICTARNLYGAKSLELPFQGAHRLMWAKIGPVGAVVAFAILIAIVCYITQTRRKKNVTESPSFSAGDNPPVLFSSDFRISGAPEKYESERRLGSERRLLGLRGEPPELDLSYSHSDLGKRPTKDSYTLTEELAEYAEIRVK
In words: flow cytometry, transfected 293T cells.

The target in assay [8] is T8, human COLEC12 expressed on cells (human, UniProt Q5KU26 1-742).
T8 construct: also called hCOLEC12; C-terminal his tagged hCOLEC12
The assay can be described thus: flow cytometry, transfected 293T cells.

The target in assay [9] is T7, MAG expressed on cells. The assay can be described thus: flow cytometry, transfected 293T cells, 50 µg/ml.
Assay [10] has as its target T5, FceRII expressed on cells. The assay can be described thus: flow cytometry, transfected 293T cells, 50 µg/ml. The source holds these as a separate data set.
Assay [11] addresses T6, LRRTM4 expressed on cells. The assay can be described thus: flow cytometry, transfected 293T cells. The source holds these as a separate data set.
For assay [12], the target named is T7, MAG expressed on cells. In words: flow cytometry, transfected 293T cells, 50 µg/ml. The source holds these as a separate data set.
Assay [13] concerns the target T9, mouse CD99 expressed on 293T cells (mouse, UniProt Q8VCN6 29-175, sialylated O-glycans at Thr-45 and Thr-50 (cited as relevant for PILRα recognition)).
T9 construct: whole, on cells; also called mCD99; mCD99 transfectants
T9 sequence (looked up): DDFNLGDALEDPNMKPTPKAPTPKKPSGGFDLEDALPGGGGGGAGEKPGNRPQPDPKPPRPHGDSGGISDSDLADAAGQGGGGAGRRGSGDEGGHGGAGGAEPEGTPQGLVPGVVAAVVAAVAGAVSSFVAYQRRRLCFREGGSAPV
The assay can be described thus: flow cytometry, transfected 293T cells.

Assay [14] addresses T10, human NPDC1 expressed on cells (human, UniProt Q9NQX5 35-325).
T10 construct: also called hNPDC1; hNPCD1
T10 sequence: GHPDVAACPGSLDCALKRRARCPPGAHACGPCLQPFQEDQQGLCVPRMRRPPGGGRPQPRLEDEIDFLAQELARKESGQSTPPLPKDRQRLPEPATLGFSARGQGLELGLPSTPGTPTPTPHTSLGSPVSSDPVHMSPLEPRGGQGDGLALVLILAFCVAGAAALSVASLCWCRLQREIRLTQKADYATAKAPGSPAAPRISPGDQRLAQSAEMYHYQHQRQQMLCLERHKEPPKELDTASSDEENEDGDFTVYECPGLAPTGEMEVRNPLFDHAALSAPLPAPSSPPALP
In words: flow cytometry, transfected 293T cells.

Assay [15] has as its target T6, LRRTM4 expressed on cells. The assay can be described thus: flow cytometry, transfected 293T cells, 2 µg/ml.
Assay [16] deals with T7, MAG expressed on cells. The assay can be described thus: flow cytometry, transfected 293T cells, 2 µg/ml.
The target in assay [17] is T2, PSS8 expressed on cells. The assay can be described thus: flow cytometry, transfected 293T cells. The source holds these as a separate data set.
In assay [18] the target is T3, IL-2Ra expressed on cells. In words: flow cytometry, transfected 293T cells. The source holds these as a separate data set.
Assay [19] deals with T1, BR3 expressed on cells. The assay can be described thus: flow cytometry, transfected 293T cells.
For the next assay, the target named is T11, hCOLEC12-his (human, UniProt Q5KU26 59-742, sialylated O-glycans and N-glycans).
T11 construct: Whole entry named; also called human COLEC12-his; hCOLEC12 (SPR); not shown: his tag
The assay can be described thus: SPR, hPILRα R126A-Fc immobilized, response difference. (In general: In SPR one partner is held on a chip, and binding of the other changes the refractive index at the surface.)

The target in another assay is T12, mCD99-Fc (mouse, UniProt Q8VCN6 29-137, limits assumed, three O-glycans NeuAc1-2Hex1HexNAc1).
T12 construct: also called mouse CD99-Fc; mCD99 (SPR analyte); not shown: Fc
T12 sequence (looked up): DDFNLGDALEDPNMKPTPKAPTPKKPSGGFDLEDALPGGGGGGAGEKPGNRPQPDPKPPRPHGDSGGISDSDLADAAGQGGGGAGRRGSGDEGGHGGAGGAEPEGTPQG
Described as above.

Assay [20] concerns the target T8, human COLEC12 expressed on cells. In words: flow cytometry, transfected 293T cells, ligand-expressing cells gated.
Assay [21] deals with T13, HSV1 glycoprotein B expressed on 293T cells (herpes simplex virus type 1, UniProt P10211 31-904).
T13 construct: whole, on cells; also called HSV-1 gB; HSV1 gB
The description is as above.

The target of assay [22] is T4, CLEC4G expressed on cells. In words: flow cytometry, transfected 293T cells.
The target in assay [23] is T2, PSS8 expressed on cells. The assay can be described thus: flow cytometry, transfected 293T cells, 2 µg/ml.
Assay [24] concerns the target T1, BR3 expressed on cells. The assay can be described thus: flow cytometry, transfected 293T cells, 2 µg/ml.

Like-named read-outs stand apart in the source and are kept apart here.

T2 sequence (Q16651 30-343 limits assumed): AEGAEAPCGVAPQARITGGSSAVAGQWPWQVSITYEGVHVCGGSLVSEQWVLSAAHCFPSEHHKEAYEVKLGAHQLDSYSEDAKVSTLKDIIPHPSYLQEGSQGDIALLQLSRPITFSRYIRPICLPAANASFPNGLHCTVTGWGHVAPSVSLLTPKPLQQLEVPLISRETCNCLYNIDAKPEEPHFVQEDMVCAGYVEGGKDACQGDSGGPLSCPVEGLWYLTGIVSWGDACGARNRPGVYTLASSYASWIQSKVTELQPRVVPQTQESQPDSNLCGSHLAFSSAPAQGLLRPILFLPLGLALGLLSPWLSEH
T6 sequence (Q86VH4 31-590 limits assumed): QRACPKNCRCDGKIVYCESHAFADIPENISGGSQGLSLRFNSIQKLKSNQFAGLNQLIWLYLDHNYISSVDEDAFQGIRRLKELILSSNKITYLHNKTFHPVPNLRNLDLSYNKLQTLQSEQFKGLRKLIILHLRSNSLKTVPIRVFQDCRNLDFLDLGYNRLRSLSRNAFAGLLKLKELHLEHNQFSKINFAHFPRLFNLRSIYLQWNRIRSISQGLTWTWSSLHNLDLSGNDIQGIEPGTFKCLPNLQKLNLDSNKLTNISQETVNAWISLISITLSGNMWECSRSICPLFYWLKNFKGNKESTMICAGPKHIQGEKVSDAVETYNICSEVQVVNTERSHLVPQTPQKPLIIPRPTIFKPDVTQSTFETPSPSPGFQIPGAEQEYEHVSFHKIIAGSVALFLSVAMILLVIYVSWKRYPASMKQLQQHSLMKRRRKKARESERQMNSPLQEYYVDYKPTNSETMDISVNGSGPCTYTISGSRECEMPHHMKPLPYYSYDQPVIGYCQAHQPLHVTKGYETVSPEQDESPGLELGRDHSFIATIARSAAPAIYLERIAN
T8 sequence (Q5KU26 whole entry S522P/G606S): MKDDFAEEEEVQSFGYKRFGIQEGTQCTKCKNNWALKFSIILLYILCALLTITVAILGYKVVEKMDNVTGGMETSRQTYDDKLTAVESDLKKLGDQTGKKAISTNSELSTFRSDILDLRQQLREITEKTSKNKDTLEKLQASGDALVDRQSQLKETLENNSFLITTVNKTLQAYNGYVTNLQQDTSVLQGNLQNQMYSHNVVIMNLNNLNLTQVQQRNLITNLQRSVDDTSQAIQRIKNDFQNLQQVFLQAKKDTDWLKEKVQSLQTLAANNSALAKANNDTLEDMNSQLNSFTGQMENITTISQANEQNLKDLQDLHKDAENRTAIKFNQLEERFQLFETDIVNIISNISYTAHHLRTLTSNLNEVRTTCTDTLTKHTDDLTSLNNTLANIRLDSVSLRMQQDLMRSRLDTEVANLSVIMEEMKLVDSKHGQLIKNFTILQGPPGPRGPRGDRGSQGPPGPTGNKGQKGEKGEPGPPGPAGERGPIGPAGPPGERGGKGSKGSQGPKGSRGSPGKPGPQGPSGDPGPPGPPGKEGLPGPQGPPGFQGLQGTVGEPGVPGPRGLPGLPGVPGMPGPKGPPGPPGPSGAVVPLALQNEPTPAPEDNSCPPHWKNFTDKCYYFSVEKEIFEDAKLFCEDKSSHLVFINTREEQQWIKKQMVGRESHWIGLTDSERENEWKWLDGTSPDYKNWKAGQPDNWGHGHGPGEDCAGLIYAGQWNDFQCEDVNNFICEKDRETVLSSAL
T11 sequence (Q5KU26 59-742 S522P/G606S limits assumed): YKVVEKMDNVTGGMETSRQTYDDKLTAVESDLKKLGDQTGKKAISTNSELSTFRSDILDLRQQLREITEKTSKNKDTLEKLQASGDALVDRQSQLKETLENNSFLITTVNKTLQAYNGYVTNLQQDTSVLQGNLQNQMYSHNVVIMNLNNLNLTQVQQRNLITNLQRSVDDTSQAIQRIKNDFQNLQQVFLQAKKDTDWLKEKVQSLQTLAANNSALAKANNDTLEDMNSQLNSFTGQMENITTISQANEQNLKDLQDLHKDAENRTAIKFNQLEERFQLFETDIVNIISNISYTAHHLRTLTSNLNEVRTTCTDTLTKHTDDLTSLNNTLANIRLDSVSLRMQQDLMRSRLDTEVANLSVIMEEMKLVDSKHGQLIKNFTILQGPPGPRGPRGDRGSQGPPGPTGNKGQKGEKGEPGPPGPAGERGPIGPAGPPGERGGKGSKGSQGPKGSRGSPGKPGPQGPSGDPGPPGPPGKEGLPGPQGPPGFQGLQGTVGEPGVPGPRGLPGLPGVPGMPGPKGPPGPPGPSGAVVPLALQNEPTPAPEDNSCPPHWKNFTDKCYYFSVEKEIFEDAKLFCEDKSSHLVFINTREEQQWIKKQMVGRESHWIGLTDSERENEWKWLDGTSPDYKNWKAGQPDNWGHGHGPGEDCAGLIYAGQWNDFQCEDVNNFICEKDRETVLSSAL

B1: mPILRβ (receptor)
chain: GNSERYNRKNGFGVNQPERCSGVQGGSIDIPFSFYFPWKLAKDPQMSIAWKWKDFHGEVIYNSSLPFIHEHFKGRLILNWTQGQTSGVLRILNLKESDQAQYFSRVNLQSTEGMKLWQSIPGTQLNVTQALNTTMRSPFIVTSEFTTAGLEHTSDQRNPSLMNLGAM
notes: also called Mouse PILR-beta
Turning to B1, the “% cells in lower right quadrant” value was 1.85% in the assay with BR3 expressed on cells [1]; 27.4% in [4]; 3.98% in [5]; 0.083% with MAG expressed on cells [9]; 3.98% in [10]. Also, the binding result (in the assay with PSS8 expressed on cells [2]; in [3]; in assay [6]; in the assay with MAG expressed on cells [7]; in assay [8]) was “no binding (tested: 50 µg/ml)” each time.

B2: hPILRαR126A-Fc (Fc fusion)
chain: QPSGSTGSGPSYLYGVTQPKHLSASMGGSVEIPFSFYYPWELATAPDVRISWRRGHFHRQSFYSTRPPSIHKDYVNRLFLNWTEGQKSGFLRISNLQKQDQSVYFCAVELDTRSSGRQQWQSIEGTKLSITQAVTTTTQRPSSMTTTWRLSSTTTTTGLRVTQGKRRSDSWHISLETA
notes: Arg mutant of hPILRα-Fc; also called hPILRα R126-Fc; mutant hPILRα; not shown: Fc of mouse IgG2a (PILRα-mIgG2a, called PILRα-Fc)
In the case of B2, the binding result (in assay [11]; in assay [13]; in assay [14]; with PSS8 expressed on cells [17]; in assay [18]; with BR3 expressed on cells [19]) was “no binding (tested: 50 µg/ml)” throughout. Moreover, the binding result with hCOLEC12-his was “no binding (tested: 1 µM)”; with mCD99-Fc, “no binding (tested: 1 µM)”; in assay [20] it was “no binding”; in assay [21], “no binding”; in [22], “no binding (tested: 50 µg/ml)”. For the same molecule, the “% cells in lower right quadrant” value with MAG expressed on cells [12] worked out at 12.5%; in assay [15], 0.11%; in the assay with MAG expressed on cells [16] it was 0.17%; with PSS8 expressed on cells [23], 0.012%; in the assay with BR3 expressed on cells [24] it was 0.47%.

Values taken from patent US20150203575A1 (Genentech, published 2015).
